From the RNAGym collection of RNA variant scans (doi:10.1093/molbev/msab373)

B1: Azoarcus group I ribozyme (parent)
chain: GUGCCUUGCGCCGGGAAACCACGCAAGGGAUGGUGUCAAAUUCGGCGAAACCUAAGCGCCCGCCCGGGCGUAUGGCAACGCCGAGCCAAGCUUCGGCGCCUGCGCCGAUGAAGGUGUAGAGACUAGACGGCACCCACCUAAGGCAAACGCUAUGGUGAAGGCAUAGUCCAGGGAGUGGCGAAAGUCACACAAACCGG

Variants of: B1
Test: reverse-splicing fitness (ratio to wild type); higher = more active; in vitro selection; Mg2+ level not given
Procedure, shortened: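 An in vitro group I ribozyme library with randomized positions was T7-transcribed and gel-purified. In triplicate, 10 pmol RNA in EPPS pH 7.5 was reacted with 50 pmoles of a 30-nt RNA substrate for 1 h at 37 °C across several added MgCl2 levels (1–48 mM), then stopped with EDTA. Products were reverse transcribed from a substrate-complementary primer, PCR-amplified and sequenced (HiSeq 4000). Fitness is a variant's read proportion after selection over that before, normalised to wild type.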

Variant	reverse-splicing fitness
C82A A111G A120G C150A U176G	0.00961
C82A A111G A120G C150A U176A	0.0129
C82A A111G A120G C150A U176C	0.0186
C82A A111G A120G A145U C150U C169U	0.00852
C82A A111G A120G A145U C150U C169G	0.0104
C82A A111G A120G A145U C150U C169A	0.0103
C82A A111G A120G A145U C150G U176A	0.00605
C82A A111G A120G A145U C150G U176C	0.00837
C82A A111G A120G A145U C150G U176G	0.00378
C82A A111G A120G A145U C150U C169U U176A	0.0192
C82A A111G A120G A145U C150U C169U U176C	0.0152
C82A A111G A120G A145U C150U C169U U176G	0.00555
C82A A111G A120G A145G C169U	0.0111
C82A A111G A120G A145G C169A	0.0101
C82A A111G A120G A145G C169G	0.0122
C82A A111G A120G C150A C169U U176A	0.0244
C82A A111G A120G C150A C169U U176G	0.00838
C82A A111G A120G C150A C169U U176C	0.0219
C82A A111G A120G A145U C169G	0.0112
C82A A111G A120G A145U C169U	0.00927
C82A A111G A120G A145U C169A	0.00824

Variant	reverse-splicing fitness
C82A A111G A120G A145U C150U U176G	0.00595
C82A A111G A120G A145U C150U U176C	0.014
C82A A111G A120G A145U C150U U176A	0.00996
C82A A111G A120G A145G C150U	0.0145
C82A A111G A120G A145G C150G	0.00769
C82A A111G A120G C150G C169G U176A	0.00689
C82A A111G A120G C150G C169G U176C	0.00515
C82A A111G A120G C150G C169G U176G	0.00489
C82A A111G A120G A145U C150G C169U U176G	0.00483
C82A A111G A120G A145U C150G C169U U176A	0.012
C82A A111G A120G A145U C150G C169U U176C	0.0132
C82A A111G A120G A145G C169U U176C	0.0173
C82A A111G A120G A145G C169U U176A	0.019
C82A A111G A120G A145G C169U U176G	0.00492
C82A A111G A120G A145U C150U C169A U176G	0.00488
C82A A111G A120G A145U C150U C169A U176A	0.0141
C82A A111G A120G A145U C150U C169A U176C	0.0116
C82A A111G A120G A145U C169U U176G	0.00416
C82A A111G A120G A145U C169U U176C	0.0158
C82A A111G A120G A145U C169U U176A	0.0204
C82A A111G A120G C150G C169U U176A	0.0124

Variant	reverse-splicing fitness
C82A A111G A120G C150G C169U U176G	0.00657
C82A A111G A120G C150G C169U U176C	0.0135
C82A A111G A120G C150A C169A U176G	0.00588
C82A A111G A120G C150A C169A U176A	0.0228
C82A A111G A120G C150A C169A U176C	0.0184
C82A A111G A120G A145G C150U C169G U176G	0.00529
C82A A111G A120G A145G C150U C169G U176C	0.0176
C82A A111G A120G A145G C150U C169G U176A	0.0157
C82A A111G A120G C150G C169A U176G	0.00672
C82A A111G A120G C150G C169A U176C	0.0123
C82A A111G A120G C150G C169A U176A	0.0117
C82A A111G A120G A145G C150U U176A	0.00945
C82A A111G A120G A145G C150U U176G	0.00788
C82A A111G A120G A145G C150U U176C	0.0182
C82A A111G A120G A145G U176A	0.0128
C82A A111G A120G A145G U176G	0.00638
C82A A111G A120G A145G U176C	0.0205
C82A A111G A120G C150U C169G U176C	0.0192
C82A A111G A120G C150U C169G U176G	0.0061
C82A A111G A120G C150U C169G U176A	0.0166
C82A A111G A120G A145G C150U C169U U176C	0.0165

Variant	reverse-splicing fitness
C82A A111G A120G A145G C150U C169U U176A	0.0182
C82A A111G A120G A145G C150U C169U U176G	0.00632
C82A A111G A120G C150U C169U U176A	0.023
C82A A111G A120G A145G C150U C169A U176G	0.0063
C82A A111G A120G A145G C150U C169A U176C	0.0174
C82A A111G A120G A145G C150U C169A U176A	0.016
C82A A111G A120G A145U C150G C169U	0.00867
C82A A111G A120G A145U C150G C169A	0.00989
C82A A111G A120G A145U C150G C169G	0.00677
C82A A111G A120G A145G C150U C169G	0.0113
C82A A111G A120G A145G C150U C169U	0.011
C82A A111G A120G A145G C150U C169A	0.0119
C82A A111G A120G A145G C150A U176C	0.0203
C82A A111G A120G A145G C150A U176A	0.0103
C82A A111G A120G A145G C150A U176G	0.00899
C82A A111G A120G A145U C150A C169U U176A	0.0222
C82A A111G A120G A145U C150A C169U U176G	0.00457
C82A A111G A120G A145U C150A C169U U176C	0.0157
C82A A111G A120G A145U C150A C169G	0.00871
C82A A111G A120G A145U C150A C169U	0.00754
